In patent publication US20250057965A1, “PEPTIDE OLIGONUCLEOTIDE CONJUGATES” (Sarepta Therapeutics, Inc., priority 2015, published 2025):
Values joined by “and” are separate entries in the source; they are usually repeats but may differ in a detail not shown here. Identical values can stand only once.

Tests used:
dystrophin exon 23 = experiment: Dose response for efficacy in mdx mice: % exon 23 skipping by nested RT-PCR; assay type: in vivo, Mouse (mdx); conditions: for % Exon 23 Skip (Average), Diaphragm / % Exon 23 Skip (Average), Heart / % Exon 23 Skip (Average), Quadricep (L): mdx mice, 7 days post-dose, n=5
Text: The aim of this study was to compare efficacy of peptide-oligomer-conjugates of the disclosure in a dose response study in mice. The spacing between the peptide and PMO modulates efficacy. Accordingly, PEG lengths of 3, 4, and 8 were used to systematically increase spacing between Ac-R6-Gly (SEQ ID NO:1) and the PMO. Additionally, an all-D amino acid version of Ac-R6-Gly (SEQ ID NO:1) and Ac-R6-Apa (SEQ ID NO:4) (4-amino phenyl acetic acid; aromatic, hydrophobic linker) were used (Table 2).
Selected peptide-oligomer-conjugates that were tested are listed in Table 2 (the peptide-oligomer-conjugates were formulated in saline and stored at 5° C.).
Animals were randomized into treatment groups based on cage weights as specified in Table 4.
(§1) The day of dosing on the study was designated as Study Day 1. Each peptide-oligomer-conjugate was vortexted for approximately 10 seconds prior to dosing, and administered via tail vein as a slow push bolus (˜5 seconds; 200 μL). Dosing was performed over two days. All animals receiving the same peptide-oligomer-conjugate were dosed on the same day. […] Any remaining spare animals were necropsied and tissues collected as specified below.
On day 8 (7 days post-dose), all animals, including any untreated or spare animals, were humanely euthanized with carbon dioxide. Euthanasia was performed in accordance with accepted American Veterinary Medical Association (AVMA) guidelines on Euthanasia, June 2007.
Tissues were collected within 15 minutes or less of euthanasia. All instruments and tools used were changed between treatment groups. All tissues were flash frozen and stored at a temperature lower than −70° C. as soon as possible after collection. The following tissues were collected: liver, kidneys, heart, quads, and diaphragm.
RNA from mouse quadriceps, heart, and diaphragm tissue was purified using GE Illustra RNAspin 96 well extraction kits. Briefly, 400 μL of lysis buffer (RA1+1% 2-mercaptoethanol was added to about 20-30 mg of frozen tissue in a plate with zirconia beads (Biospec) and homogenized using GenoGrinder (Spex Sample Prep) at 4×8 minutes at 1750 RPM; cooling between each run. The homogenate was immediately processed for RNA purification according to the GE RNAspin Illustra 96 well protocol. Total RNA was quantitated with a Nanodrop 2000 spectrophotometer (ThermoScientific).
RNA was analyzed by a classic nested PCR reaction. RT-PCR reagents were from Invitrogen unless otherwise specified. PCR reactions were run in a CFX96 or S1000 thermocycler (BioRad). Final cDNA products were separated on a NuPage 10% TBE gel (Invitrogen) run at 200V, 1 hr at room temperature. Gels were scanned with a Typhoon Trio (GE Healthcare) using a 670 BP 30 Cy5 emission filter and analyzed with ImageQuant software.
Primers used for PCR analysis were as follows: dystrophin outer forward (5′-[…]-3′; SEQ ID NO:9), dystrophin outer reverse (5′-[…]-3′; SEQ ID NO:10), dystrophin inner forward (5′-[…]-3′; SEQ ID NO:11), and dystrophin inner reverse (5′-[…]-3′; SEQ ID NO:12).

[1] = Individual body weights in dose response study; assay type: in vivo, Mouse (mdx); conditions: mdx mice
Description: (§2) Any animal showing signs of distress, particularly if death appeared imminent was humanely euthanized according to Numira Biosciences Standard Operating Procedures. Body weights were recorded on the day after arrival, the day of dosing, and the day of necropsy. Detailed clinical observations were conducted and recorded at 0 minutes, 15 minutes, and 2 hours post-dose to assess tolerability of injections.

[2] = parameters: species or system Mouse (mdx); conditions: mouse, in vivo
Text: BUN levels are increased when compared to PPMO-8.

[3] = Maximum tolerated dose (MTD) study in mdx mice: survival and in-life observations; assay type: in vivo, Mouse (mdx); conditions: for MTD % Survival / MTD in-life observations: n=3
Description: The maximum tolerated dose (MTD) of selected peptide-oligomer-conjugates of the disclosure was determined in mice according to the regimens shown in Table 8. […] PPMO-5 has a MTD>200 mg/kg.
Importantly, the toxicity of a peptide-oligomer-conjugate can be described in two phases: t1 and t2. t1 refers to rapid death, or death within 48 hours, most likely due to cardiopulmonary collapse. t2 refers to chronic kidney toxicity, observed with a peptide-oligomer-conjugate after multiple weekly doses. The MTD measurements described herein refer to ti toxicity (48 hour endpoint).

[4] = Animal health / clinical observations in dose response study; assay type: in vivo
Description: as §1, §2
Animals unlikely to survive until the next scheduled observation were weighed and euthanized. Animals found dead were weighed and the time of death was estimated as closely as possible. Blood and tissue samples were not collected.
The partial gross necropsy included examination and documentation of findings. All external surfaces and orifices were evaluated. All abnormalities observed during the collection of the tissues listed below were described completely and recorded. No additional tissues were taken.

[5] = 5 mg/kg single i.v., day 8, one value per animal, 5 mg/kg
[6] = 10 mg/kg single i.v., day 8, one value per animal, 10 mg/kg
[7] = 20 mg/kg single i.v., day 8, one value per animal, 20 mg/kg
[8] = 40 mg/kg single i.v., day 8, one value per animal (FD = found dead), 40 mg/kg
[9] = 80 mg/kg single i.v., day 8, one value per animal, 80 mg/kg
[10] = 100 mg/kg single i.v. injection
[11] = 150 mg/kg single i.v. injection
[12] = 200 mg/kg single i.v. injection

Compound | Individual body weight, pre-necropsy [1, 5] | Individual body weight, pre-necropsy [1, 6] | Individual body weight, pre-necropsy [1, 7] | Individual body weight, pre-necropsy [1, 8] | Individual body weight, pre-necropsy [1, 9] | MTD % Survival ([3]; 50 mg/kg single i.v. injection) | MTD % Survival [3, 10] | MTD in-life observations ([3]; 100 mg/kg single i.v.) | MTD % Survival [3, 11] | MTD in-life observations ([3]; 150 mg/kg single i.v.) | MTD % Survival [3, 12] | MTD in-life observations ([3]; 200 mg/kg single i.v.) | also measured
Ac-dR6-G (all-D amino acid R) (SEQ ID NO: 8) (RRRRRRG; N-acetyl; all-D amino acids; SITE 1 acetylation of N terminus; SITE 1..6 D-Arginine) [PPMO-7] | 22.3 g and 22.46 g and 23.21 g and 21.43 g and 23.41 g | 17.85 g and 22.7 g and 23.56 g and 21.97 g and 21.8 g | 20.85 g and 20.17 g and 21.1 g and 21.38 g and 24.55 g | 22.58 g and 22.21 g and 21.29 g and 18.19 g and 20.93 g | 21.98 g and 22.63 g and 19.65 g and 19.9 g and 22.86 g | 100% | 100% | 3/3 slow to recover at 15 min., ok by 2 hours | 100% | 3/3 slow to recover at 15 min., ok by 2 hours | 33% | 2/3 dead at 15 minutes, 1/3 lethargic at 15 min and 2 hours | Efficacy (% exon 23 skipping), in words (dystrophin exon 23; comparison with other conjugates / linkers): improved efficacy; % Exon 23 Skip (Average), Diaphragm (dystrophin exon 23; 5 mg/kg single i.v. injection): 1%; % Exon 23 Skip (Average), Heart (dystrophin exon 23; 5 mg/kg single i.v. injection): 0%; % Exon 23 Skip (Average), Quadricep (L) (dystrophin exon 23; 5 mg/kg single i.v. injection): 4%; % Exon 23 Skip (Average), Diaphragm (dystrophin exon 23; 10 mg/kg single i.v. injection): 6%; % Exon 23 Skip (Average), Heart (dystrophin exon 23; 10 mg/kg single i.v. injection): 2%; % Exon 23 Skip (Average), Quadricep (L) (dystrophin exon 23; 10 mg/kg single i.v. injection): 11%; % Exon 23 Skip (Average), Diaphragm (dystrophin exon 23; 20 mg/kg single i.v. injection): 30%; % Exon 23 Skip (Average), Heart (dystrophin exon 23; 20 mg/kg single i.v. injection): 13%; % Exon 23 Skip (Average), Quadricep (L) (dystrophin exon 23; 20 mg/kg single i.v. injection): 53%; % Exon 23 Skip (Average), Diaphragm (dystrophin exon 23; 40 mg/kg single i.v. injection): 67%; % Exon 23 Skip (Average), Heart (dystrophin exon 23; 40 mg/kg single i.v. injection): 42%; % Exon 23 Skip (Average), Quadricep (L) (dystrophin exon 23; 40 mg/kg single i.v. injection): 89%; % Exon 23 Skip (Average), Diaphragm (dystrophin exon 23; 80 mg/kg single i.v. injection): 93%; % Exon 23 Skip (Average), Heart (dystrophin exon 23; 80 mg/kg single i.v. injection): 93%; % Exon 23 Skip (Average), Quadricep (L) (dystrophin exon 23; 80 mg/kg single i.v. injection): 92%; Liver and kidney serum chemistry markers [2]: increased liver and kidney serum chemistry markers; Tolerability ([3]; MTD study, in words): not well-tolerated
CC(=O)N[C@@H](CCCNC(=N)N)C(=O)N[C@@H](CCCNC(=N)N)C(=O)N[C@@H](CCCNC(=N)N)C(=O)N[C@@H](CCCNC(=N)N)C(=O)N[C@@H](CCCNC(=N)N)C(=O)N[C@@H](CCCNC(=N)N)C(=O)NCC(=O)N1CCN(C(=O)OCCOCCOCCOC(=O)N2C[C@@H](COP(=O)(N(C)C)N3C[C@@H](COP(=O)(N(C)C)N4C[C@@H](COP(=O)(N(C)C)N5C[C@@H](COP(=O)(N(C)C)N6C[C@@H](COP(=O)(N(C)C)N7C[C@@H](COP(=O)(N(C)C)N8C[C@@H](COP(=O)(N(C)C)N9C[C@@H](COP(=O)(N(C)C)N%10C[C@@H](COP(=O)(N(C)C)N%11C[C@@H](COP(=O)(N(C)C)N%12C[C@@H](COP(=O)(N(C)C)N%13C[C@@H](COP(=O)(N(C)C)N%14C[C@@H](COP(=O)(N(C)C)N%15C[C@@H](COP(=O)(N(C)C)N%16C[C@@H](COP(=O)(N(C)C)N%17C[C@@H](COP(=O)(N(C)C)N%18C[C@@H](COP(=O)(N(C)C)N%19C[C@@H](COP(=O)(N(C)C)N%20C[C@@H](COP(=O)(N(C)C)N%21CCN(C(=O)OCCOCCOCCO)CC%21)O[C@@H](n%21cnc%22c(=O)[nH]c(N)nc%22%21)C%20)O[C@@H](n%20ccc(N)nc%20=O)C%19)O[C@@H](n%19cc(C)c(=O)[nH]c%19=O)C%18)O[C@@H](n%18cnc%19c(N)ncnc%19%18)C%17)O[C@@H](n%17cc(C)c(=O)[nH]c%17=O)C%16)O[C@@H](n%16cc(C)c(=O)[nH]c%16=O)C%15)O[C@@H](n%15cnc%16c(N)ncnc%16%15)C%14)O[C@@H](n%14ccc(N)nc%14=O)C%13)O[C@@H](n%13ccc(N)nc%13=O)C%12)O[C@@H](n%12cc(C)c(=O)[nH]c%12=O)C%11)O[C@@H](n%11cc(C)c(=O)[nH]c%11=O)C%10)O[C@@H](n%10cnc%11c(N)ncnc%11%10)C9)O[C@@H](n9cnc%10c(N)ncnc%109)C8)O[C@@H](n8ccc(N)nc8=O)C7)O[C@@H](n7ccc(N)nc7=O)C6)O[C@@H](n6ccc(N)nc6=O)C5)O[C@@H](n5cnc6c(N)ncnc65)C4)O[C@@H](n4cnc5c(=O)[nH]c(N)nc54)C3)O[C@@H](n3cc(C)c(=O)[nH]c3=O)C2)CC1 (stereo partly drawn) [PPMO-4] | 21.45 g and 22.61 g and 19.15 g and 19.6 g and 21.53 g | 19.41 g and 21.91 g and 18.98 g and 20.43 g and 20.49 g | 20.09 g and 21.25 g and 22.62 g and 20.71 g and 17.08 g | 20.59 g and 18.25 g and 22.63 g and 21.35 g and 21.22 g | 23.86 g and 17.9 g and 21.36 g and 21.1 g and 20.69 g | 100% | 100% | 3/3 slow to recover at 15 min., ok by 2 hours | 100% | 3/3 lethargic at 15 min., ok by 2 hours | 0% | 3/3 lethargic at 15 min and 2 hours, 3/3 dead at 24 hours | Animal health observation ([4]; 5 mg/kg, at necropsy, animal 2406): right eye closed and had a white substance exuding from it; Animal health observation ([4]; 40 mg/kg single i.v.): slow to recover at the 15 minute observation but recovered by the 2 hour observation; Animal health observation ([4]; 80 mg/kg single i.v.): slow to recover at the 15 minute observation but recovered by the 2 hour observation
